Measured values from the supplement of paper PMC11811203.

B1: THAP1; numbered along this chain (parent)
chain: MVQSCSAYGCKNRYDKDKPVSFHKFPLTRPSLCKEWEAAVRRKNFKPTKYSSICSEHFTPDCFKRECNNKLLKENAVPTIFLCTEPHDKKEDLLEPQEQLPPPPLPPPVSQVDAAIGLLMPPLQTPVNLSVFCDHNYTVEDTMHQRKRIHQLEQQVEKLRKKLKTAQQRCRRQERQLEKLKEVVHFQKEKDDVSERGYVILPNDYFEIVEVPA

Variants of: B1
Test: THAP1 transcriptional activity (GFP+/GFP- enrichment relative to wild-type constructs) (ratio to WT); higher = more THAP1 activity (PSMB5 reporter activation)
Conditions: with PSMB5 promoter-GFP reporter
Experimental: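 Deep mutational scan of human THAP1. Site-saturation single amino acid variant library (residues 2-213) was expressed by lentivirus at MOI ~0.3 in THAP1-knockout HEK-293T cells carrying an endogenous PSMB5 promoter-GFP knock-in reporter. Five days post-transduction, BFP+ cells were FACS-sorted into GFP dim and GFP bright populations and variants were counted by Illumina sequencing. Activity is the GFP-bright/GFP-dim read fold change, mean of 2 replicates, divided by the mean fold change of wild-type (synonymous) constructs in the same screen pool; WT = 1.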

Row | Variant | THAP1 transcriptional activity
1 | MVQSCSAYGCKNRYDKDKPVSFHKFPLTRPNLCKEWEAAVRRKNFKPTKYSSICSEHFTPDCFKRECNNKLLKENAVPTIFLCTEPHDKKEDLLEPQEQLPPPPLPPPVSQVDAAIGLLMPPLQTPVNLSVFCDHNYTVEDTMHQRKRIHQLEQQVEKLRKKLKTAQQRCRRQERQLEKLKEVVHFQKEKDDVSERGYVILPNDYFEIVEVPA [S31N] | 0.574
2 | MVQSCSAYGCKNRYDKDKPVSFHKFPLTRPPLCKEWEAAVRRKNFKPTKYSSICSEHFTPDCFKRECNNKLLKENAVPTIFLCTEPHDKKEDLLEPQEQLPPPPLPPPVSQVDAAIGLLMPPLQTPVNLSVFCDHNYTVEDTMHQRKRIHQLEQQVEKLRKKLKTAQQRCRRQERQLEKLKEVVHFQKEKDDVSERGYVILPNDYFEIVEVPA [S31P] | 0.204
3 | MVQSCSAYGCKNRYDKDKPVSFHKFPLTRPQLCKEWEAAVRRKNFKPTKYSSICSEHFTPDCFKRECNNKLLKENAVPTIFLCTEPHDKKEDLLEPQEQLPPPPLPPPVSQVDAAIGLLMPPLQTPVNLSVFCDHNYTVEDTMHQRKRIHQLEQQVEKLRKKLKTAQQRCRRQERQLEKLKEVVHFQKEKDDVSERGYVILPNDYFEIVEVPA [S31Q] | 0.998
4 | MVQSCSAYGCKNRYDKDKPVSFHKFPLTRPRLCKEWEAAVRRKNFKPTKYSSICSEHFTPDCFKRECNNKLLKENAVPTIFLCTEPHDKKEDLLEPQEQLPPPPLPPPVSQVDAAIGLLMPPLQTPVNLSVFCDHNYTVEDTMHQRKRIHQLEQQVEKLRKKLKTAQQRCRRQERQLEKLKEVVHFQKEKDDVSERGYVILPNDYFEIVEVPA [S31R] | 1.01
5 | MVQSCSAYGCKNRYDKDKPVSFHKFPLTRPTLCKEWEAAVRRKNFKPTKYSSICSEHFTPDCFKRECNNKLLKENAVPTIFLCTEPHDKKEDLLEPQEQLPPPPLPPPVSQVDAAIGLLMPPLQTPVNLSVFCDHNYTVEDTMHQRKRIHQLEQQVEKLRKKLKTAQQRCRRQERQLEKLKEVVHFQKEKDDVSERGYVILPNDYFEIVEVPA [S31T] | 1.19
6 | MVQSCSAYGCKNRYDKDKPVSFHKFPLTRPVLCKEWEAAVRRKNFKPTKYSSICSEHFTPDCFKRECNNKLLKENAVPTIFLCTEPHDKKEDLLEPQEQLPPPPLPPPVSQVDAAIGLLMPPLQTPVNLSVFCDHNYTVEDTMHQRKRIHQLEQQVEKLRKKLKTAQQRCRRQERQLEKLKEVVHFQKEKDDVSERGYVILPNDYFEIVEVPA [S31V] | 0.895
7 | MVQSCSAYGCKNRYDKDKPVSFHKFPLTRPYLCKEWEAAVRRKNFKPTKYSSICSEHFTPDCFKRECNNKLLKENAVPTIFLCTEPHDKKEDLLEPQEQLPPPPLPPPVSQVDAAIGLLMPPLQTPVNLSVFCDHNYTVEDTMHQRKRIHQLEQQVEKLRKKLKTAQQRCRRQERQLEKLKEVVHFQKEKDDVSERGYVILPNDYFEIVEVPA [S31Y] | 0.535
8 | MVQSCSAYGCKNRYDKDKPVSFHKFPLTRPSACKEWEAAVRRKNFKPTKYSSICSEHFTPDCFKRECNNKLLKENAVPTIFLCTEPHDKKEDLLEPQEQLPPPPLPPPVSQVDAAIGLLMPPLQTPVNLSVFCDHNYTVEDTMHQRKRIHQLEQQVEKLRKKLKTAQQRCRRQERQLEKLKEVVHFQKEKDDVSERGYVILPNDYFEIVEVPA [L32A] | 0.175
9 | MVQSCSAYGCKNRYDKDKPVSFHKFPLTRPSCCKEWEAAVRRKNFKPTKYSSICSEHFTPDCFKRECNNKLLKENAVPTIFLCTEPHDKKEDLLEPQEQLPPPPLPPPVSQVDAAIGLLMPPLQTPVNLSVFCDHNYTVEDTMHQRKRIHQLEQQVEKLRKKLKTAQQRCRRQERQLEKLKEVVHFQKEKDDVSERGYVILPNDYFEIVEVPA [L32C] | 0.199
10 | MVQSCSAYGCKNRYDKDKPVSFHKFPLTRPSDCKEWEAAVRRKNFKPTKYSSICSEHFTPDCFKRECNNKLLKENAVPTIFLCTEPHDKKEDLLEPQEQLPPPPLPPPVSQVDAAIGLLMPPLQTPVNLSVFCDHNYTVEDTMHQRKRIHQLEQQVEKLRKKLKTAQQRCRRQERQLEKLKEVVHFQKEKDDVSERGYVILPNDYFEIVEVPA [L32D] | 0.155
11 | MVQSCSAYGCKNRYDKDKPVSFHKFPLTRPSECKEWEAAVRRKNFKPTKYSSICSEHFTPDCFKRECNNKLLKENAVPTIFLCTEPHDKKEDLLEPQEQLPPPPLPPPVSQVDAAIGLLMPPLQTPVNLSVFCDHNYTVEDTMHQRKRIHQLEQQVEKLRKKLKTAQQRCRRQERQLEKLKEVVHFQKEKDDVSERGYVILPNDYFEIVEVPA [L32E] | 0.135
12 | MVQSCSAYGCKNRYDKDKPVSFHKFPLTRPSFCKEWEAAVRRKNFKPTKYSSICSEHFTPDCFKRECNNKLLKENAVPTIFLCTEPHDKKEDLLEPQEQLPPPPLPPPVSQVDAAIGLLMPPLQTPVNLSVFCDHNYTVEDTMHQRKRIHQLEQQVEKLRKKLKTAQQRCRRQERQLEKLKEVVHFQKEKDDVSERGYVILPNDYFEIVEVPA [L32F] | 0.14
13 | MVQSCSAYGCKNRYDKDKPVSFHKFPLTRPSGCKEWEAAVRRKNFKPTKYSSICSEHFTPDCFKRECNNKLLKENAVPTIFLCTEPHDKKEDLLEPQEQLPPPPLPPPVSQVDAAIGLLMPPLQTPVNLSVFCDHNYTVEDTMHQRKRIHQLEQQVEKLRKKLKTAQQRCRRQERQLEKLKEVVHFQKEKDDVSERGYVILPNDYFEIVEVPA [L32G] | 0.156
14 | MVQSCSAYGCKNRYDKDKPVSFHKFPLTRPSHCKEWEAAVRRKNFKPTKYSSICSEHFTPDCFKRECNNKLLKENAVPTIFLCTEPHDKKEDLLEPQEQLPPPPLPPPVSQVDAAIGLLMPPLQTPVNLSVFCDHNYTVEDTMHQRKRIHQLEQQVEKLRKKLKTAQQRCRRQERQLEKLKEVVHFQKEKDDVSERGYVILPNDYFEIVEVPA [L32H] | 0.17
